Assays:
[1] = molecular target: the molecule itself; experiment: rotary shadowing electron microscopy; rmOtolin-1 adsorbed on mica, rapid freezing, freeze-drying, rotary shadowing
[2] = molecular target: the molecule itself; experiment: atomic force microscopy; 150 nM protein in 500 mM KCl deposited on freshly cleaved mica, incubated 48 hrs, in situ imaging in tapping mode

Protein | binding result [1] | binding result [2]
recombinant mouse Otolin-1-Flag (natural protein, UniProt Q4ZJM7 24-482, looked up, Otolin-1, mouse; cDNA amplified by RT-PCR from E16.5 mouse otocysts with primers from the start ATG to the last codon before the stop (FLAG added before the stop codon); secreted protein; The introduction calls rmOtolin-1 histidine tagged, the methods and results Flag tagged; also called rmOtolin-1; Flag tagged recombinant mouse Otolin-1; source: HEK293-T, stably transfected; not shown: FLAG, …) KTTPYTKFTKKSEGKEMLKGLKPSSGFFLDGEETVHTETAAMAEPTTGSPALAMAESTAGPSASATTRLLPFESFSLDTTGFVLNCCHCCSFVTGQKGEPGKMGKQGPKGETGDTGSPGHPGTTGPQGPKGQKGEKGLKGDRGDQGAGGIPGYPGKPGEQGALGPKGDKGTIGPAGTKGQKGSKGELCGNGTKGEKGDPGASGAHGFIGEPGAKGEKGGVGEKGYRGDLGERGEKGQKGEKGMEGEKGSRGDVGSEGKRGSDGLPGLRGDSGPKGEKGEIGSPGFTGPAGPKGELGSKGVRGPTGKKGSRGVKGSKGEATQVPQSAFSALLSKPFPPPNVPIKFDKILSNDQGDYSPVTGKFNCSVPGTYIFSYHVTVRGRPARISLVARNRKQFKSRETLYGQQVDQASLLLILKLSAGDQVWLEVSKDWNGLYVGPEDDSIFSGFLLYPEETFSKSP | binds | –
recombinant histidine tagged human Otolin-1 (natural protein, UniProt A6NHN0 24-477, looked up, Otolin-1, human; OmicsLink Expression-Ready Clone (pReceiver-M77 plasmid, GeneCopoeia) coding for human Otolin-1 with a C-terminal His tag; secreted protein; also called rhOtolin-1; human Otolin-1-His; source: HEK293-F (Freestyle Max 293), transfected; secreted into medium, purified (HisTrap); not shown: His tag, C-terminal, kept) KTTPHTKFTKKSEEREMPKGLKPSSGPPPEEEETLFTEMAEMAEPITKPSALDSVFGTATLSPFENFTLDPADFFLNCCDCCSPVPGQKGEPGETGQPGPKGEAGNLGIPGPPGVVGPQGPRGYKGEKGLKGERGDQGVPGYPGKPGAQGEPGPKGDKGNIGLGGVKGQKGSKGDTCGNCTKGEKGDQGAMGSPGLHGGPGAKGEKGEMGEKGEMGDKGCCGDSGERGGKGQKGEGGMKGEKGSKGDSGMEGKSGRNGLPGAKGDPGIKGEKGELGPPGLLGPTGPKGDIGNKGVRGPTGKKGSRGFKGSKGELARVPRSAFSAGLSKPFPPPNIPIKFEKILYNDQGNYSPVTGKFNCSIPGTYVFSYHITVRGRPARISLVAQNKKQFKSRETLYGQEIDQASLLVILKLSAGDQVWLEVSKDWNGVYVSAEDDSIFTGFLLYPEETSGISP | – | binds

Source: article PMC3991680, “In Vitro Calcite Crystal Morphology Is Modulated by Otoconial Proteins Otolin-1 and Otoconin-90” (PLoS ONE, 2014)
